Test results: US20230025360A1, “PROCESSES FOR GENERATING SUPERIOR ANTI-TUMOR T-CELL EFFECTOR AND MEMORY CELLS” (MUSC Foundation for Research Development, priority 2016, published 2023)

How the values were obtained:
Splenic T cells [1] = assay: Splenic T cells activated with anti-CD3/28 in presence of α-KG; format: cell-based, C57BL/6 mouse; conditions: α-KG pretreatment for three days
Protocol: Splenic T cells from C57BL/6 mouse were activated with anti-CD3/28 (each 2 μg/ml) either in absence or presence of α-KG for three days, after which: (FIG. 10A) Glucose uptake was determined using 2NBDG, and (FIG. 10B) Tscm phenotype was evaluated using CD62L and CD44 cell surface expression. N=2.

Splenic T cells [2] = assay: Homeostatic proliferation of IL2 or IL2+IL4 activated T cells in Rag1−/− recipients; format: in vivo, C57BL/6 mice; conditions: IL2+IL4 vs IL2, tracked at day 28
Text: Splenic T cells from C57BL/6 mice on Thy1.1 or Thy1.2 background were activated for three days either in 1L2 or IL2+IL4 respectively, and mixed in 1:1 ratio before injecting i.v. in Rag1−/− recipients to determine any differences in homeostatic proliferation. Transferred T cells were tracked at day 28 by staining Thy1.1 and Th1.2 cells in various lymphoid and non-lymphoid tissues.

NF-KB = NF-KB activity after addition of recombinant Trx; format: cell-based
murine melanoma B16-F10 = assay: Adoptive transfer of T cells activated in presence of rTrx; format: in vivo, C57BL/6 mice; conditions: gp100 reactive effector T cells generated in presence of rTrx
Protocol: (FIG. 7A) Three day activated gp100 epitope reactive splenic T cells from Pmel and Pmel−Trx mouse were re-stimulated overnight with cognate antigen, and supernatant was evaluated for secreted Trx by ELISA as per protocol. N=3 **p<0.005. (FIG. 7B) Pmel T cells were labeled with CFSE and stimulated with cognate antigen gp100 for three days. The expression of Trx was then determined using flurochrome conjugated antibody by gating on the cells in different phase of division. (FIG. 7C) CFSE labeled Pmel T cells were stimulated with cognate antigen in absence or presence of rTRx at various doses. Pmel T cells activated with cognate antigen in presence of rTrx (5 μg/ml) were used at day 3 to determine the expression of Trx (FIG. 7D), iGSH (FIG. 7E), pAMPK (FIG. 7F), stemness genes using qPCR (FIG. 7G), Annexin V upregulation after 4 hr of TCR restimulation with cognate antigen hgp100 or non-cognate ova peptide (FIG. 7H), and Glucose uptake using 2NBDG (FIG. 7I). N=2-3. Numerical values=MFI. *p<0.05, **p<0.01. […]
Further, it was determined if the strategy to activate and expand in presence of rTrx ex vivo would render tumor epitope reactive T cells with robust anti-tumor property.

Pmel T cells = Pmel T cells activated with cognate antigen in presence of rTrx; format: cell-based
Protocol: (FIG. 7A) Three day activated gp100 epitope reactive splenic T cells from Pmel and Pmel−Trx mouse were re-stimulated overnight with cognate antigen, and supernatant was evaluated for secreted Trx by ELISA as per protocol. N=3 **p<0.005. (FIG. 7B) Pmel T cells were labeled with CFSE and stimulated with cognate antigen gp100 for three days. The expression of Trx was then determined using flurochrome conjugated antibody by gating on the cells in different phase of division. (FIG. 7C) CFSE labeled Pmel T cells were stimulated with cognate antigen in absence or presence of rTRx at various doses. Pmel T cells activated with cognate antigen in presence of rTrx (5 μg/ml) were used at day 3 to determine the expression of Trx (FIG. 7D), iGSH (FIG. 7E), pAMPK (FIG. 7F), stemness genes using qPCR (FIG. 7G), Annexin V upregulation after 4 hr of TCR restimulation with cognate antigen hgp100 or non-cognate ova peptide (FIG. 7H), and Glucose uptake using 2NBDG (FIG. 7I). N=2-3. Numerical values=MFI. *p<0.05, **p<0.01. (FIG. 7J) Melanoma epitope gp100 reactive T cells obtained from Pmel TCR transgenic mouse were activated with cognate antigen either in presence or absence of recombinant thioredoxin (rTrx) for three days before being adoptively transferred to the immunocompetent C57BL/6 recipient mice with ten day subcutaneously established murine melanoma B16-F10. Tumor measurements from two different experiments where Pmel and Pmel+rTrx were transferred to 9 recipient mice was compiled for this presentation. ***p value<0.01 obtained at last time point of the tumor measurement before the experiment was terminated.
To get an insight into the mechanism that may be responsible for the ability of co-injected Pmel T cells to respond to tumor rechallenge (as in FIG. 6), it was determined if Pmel−Trx secreted Trx upon antigen restimulation. […] Further, to determine how secreted Trx would have modulated the Pmel T cells, recombinant Trx was used during antigen induced in vitro Pmel activation and compared the phenotype with untreated Pmel and Pmel−Trx T cells. […] It has also been shown recently that Trx1-mediated reduction of Cys130 and Cys174 is essential for AMPK function, and decreased Trx levels could lead to oxidation of Cys130 and Cys174 by inducing aggregation that prevents its activation and phosphorylation by AMPK kinases (Shao D et al., 2014, Cell Metab, 19(2):232-45).

[3] = TCR re-stimulation with cognate antigen (hgp100), cultured three days with recombinant Trx

In the case of O=C(O)CCC(=O)C(=O)O [α-ketoglutarate], the “T cell phenotype (CD62L and CD44 cell surface expression)” value (Splenic T cells [1]) is reported as “renders Tscm phenotype”.

B1: IL4: cytokine used with IL2 to pretreat T cells for three days (protein, UniProt P05112 25-153, looked up)
Interleukin-4: HKCDITLQEIIKTLNSLTEQKTLCTELTVTDIFAASKNTTEKETFCRAATVLRQFYSHHEKDTRCLGATAQQFHRHKQLIRFLKRLDRNLWGLAGLNSCPVKEANQSTLENFLERLKTIMREKYSKCSS
B1 was tested, and the “persistence of pretreated T cells in vivo” value (Splenic T cells [2]) was “improved persistence”.

B2: rTrx: recombinant thioredoxin added during ex vivo T cell activation (protein, UniProt P10599 2-105, looked up)
Thioredoxin: VKQIESKTAFQEALDAAGDKLVVVDFSATWCGPCKMIKPFFHSLSEKYSNVIFLEVDVDDCQDVASECEVKCMPTFQFFKKGQKVGEFSGANKEKLEATINELV
In the case of B2, the NF-KB activity (NF-KB) is reported as “decrease”, the “survival of transferred T cells in vivo” value (murine melanoma B16-F10) is reported as “survive longer” and the tumor control (murine melanoma B16-F10) is reported as “much improved tumor control”. For the same molecule, the “toxicity / cell division during T cell activation” value (Pmel T cells; CFSE labeled Pmel T cells, rTrx at various doses) was “non-toxic”, the “cell death as measured by Annexin V levels” value (Pmel T cells; [3]) was “reduced cell death” and the “glucose uptake (2NBDG)” value (Pmel T cells; [3]) was “reduced”. The pAMPK (Pmel T cells; compared to activated Pmel T cells) was “increased pAMPK”, the “Lef1 gene expression (qPCR, stemness genes)” value (Pmel T cells; rTrx 5 μg/ml, day 3) was “up-regulation” and the “Tcf7 gene expression (qPCR, stemness genes)” value (Pmel T cells; rTrx 5 μg/ml, day 3) was “up-regulation”. The “expression of Trx” value (Pmel T cells; rTrx 5 μg/ml, day 3) was “increased expression” and the “expression of iGSH” value (Pmel T cells; rTrx 5 μg/ml, day 3) was “increased expression”.
